Our source for the self-cleavage values is the RNAGym collection of RNA variant scans (doi:10.7554/elife.80360).

B1: Hairpin Ribozyme (parent)
chain: GUCCUCUUUCACGUGCGCGUGAAAGAGAGAAGUGAACCAGAGAAACACACGUUGUGGUAUAUUACCUGGUA

The variants in the data set derive from B1. Kind of data set: self-cleavage, relative activity (ratio to wild type); higher = more cleavage; co-transcriptional.
Take A23U G29U: the self-cleavage is 0.142. Under A24C G68C stands 0.255; under A24C G68U, 0.223. Take A23U A36C: the self-cleavage was determined as 0.596.

As to A23U U62G, the self-cleavage turned out to be 0.171.

For A23U U62C, the self-cleavage came to 0.247. Under A24U A35G stands 0.751; under A24G G56C, 0.14.

With A24G G56U, the self-cleavage came to 0.122. Under A24C A41C stands 1.01. A24C A41U: the self-cleavage was found to be 0.996. Under A23C A30C stands 0.246; under A24G G69C, 0.238. The figure for A24G G32C is 0.242; for A24G G32U it is 0.0918. A24G G32A: the self-cleavage amounted to 0.14.

Consider A24U G34C, for which the self-cleavage worked out at 1.18. The figure for A24U G34A is 1.02.

A24U G34U: the self-cleavage amounted to 1.22. Under A23U U60A stands 0.819; under A24C G29C, 0.208.

A24C G29A: the self-cleavage turned out to be 0.0206.

A24C G29U: the self-cleavage amounted to 0.0732. Under A24G A64G stands 0.533. The figure for A24C A59C is 0.209. Under A23C A59U stands 0.174.

As for A23C G57C, the self-cleavage stood at 0.192.

On to A23C G57U, for which the self-cleavage amounted to 0.29. Under A24G A41U stands 1.05; under A23C U58G, 0.674. The figure for A22G U53A is 0.926; for A23C C65G it is 0.186; for A24G C48A it is 0.191.

As to A22U G57U, the self-cleavage turned out to be 0.366. The figure for A23G A26U is 0.842; for A24C A31G it is 0.66. The figure for A23U U55G is 0.448; for A23U U55A it is 0.255.

Consider A22U A30C, for which the self-cleavage was 0.223. As for A24G A61C, the self-cleavage is 0.203. Under A23C G51C stands 0.804; under A23C G51A, 0.83; under A23G G56A, 0.186. The figure for A24U C37U is 0.734; for A24U C37G it is 0.292; for A22U G42C it is 0.325. On to A22U A43U, for which the self-cleavage was found to be 0.136. Under A22U A43C stands 0.178. Consider A23U A59C, for which the self-cleavage worked out at 0.0742.

Take A23U A59U: the self-cleavage was 0.189. In the case of A22U U33C, the self-cleavage was 0.235.

As for A24C G25C, the self-cleavage was determined as 0.315. Under A23C A49C stands 0.136. The figure for A22U C38G is 0.184; for A24C A64G it is 0.503. Under A22U A64U stands 0.14; under A22U A64G, 0.474. Take A23G A24U: the self-cleavage turned out to be 0.651. Under A23G A24C stands 0.648; under A23C G56U, 0.1. Consider A22U A59C, for which the self-cleavage is 0.17. For the variant A24C G42C, the self-cleavage amounted to 0.342. Under A24C G42A stands 0.195. Under A24C A47U stands 0.0898; under A22G U33G, 0.111; under A24G G54U, 0.607. The figure for A24G G54A is 0.387; for A22U G54U it is 0.518; for A22U G54C it is 0.333. On to A22U G54A, for which the self-cleavage was found to be 0.335. Under A24U U33A stands 0.11; under A24U U33G, 0.135; under A23U G34U, 1.34. Under A23U A49C stands 0.117. The figure for A22U A31C is 0.0317; for A23U A35G it is 0.967; for A23U A35C it is 0.848.

Take A23U C48A: the self-cleavage turned out to be 0.157. Under A23C A28U stands 0.501. A23G G69A: the self-cleavage is 0.369. Under A24U U62A stands 0.2; under A24U U62C, 0.293. Under A24U G27U stands 0.199; under A24U G69U, 0.192; under A22U G69A, 0.42. Under A23G A44U stands 0.0965; under A23G A41G, 0.678.

As for A23U G27C, the self-cleavage was 0.148. The figure for A24C U55G is 0.266. Under A24C A45U stands 0.0791. The figure for A23C U52A is 0.875. With A23G A71G, the self-cleavage is 0.975. The figure for A23G A71U is 0.634; for A24C U52C it is 0.872; for A24U A44C it is 0.252. The figure for A24U A44G is 0.119; for A24C A36U it is 0.556.

In the case of A24U G25U, the self-cleavage amounted to 0.682.

A24U A45C: the self-cleavage came to 0.179.

In the case of A24C A39C, the self-cleavage was found to be 0.554. The figure for A23C G25U is 0.172; for A23C G25C it is 0.147. Under A23G A36C stands 0.69; under A23U C38U, 0.312; under A24U U67A, 0.0716. The figure for A23G G25C is 0.521; for A23G A61U it is 0.138. As to A23G U70A, the self-cleavage was determined as 0.741. The figure for A24G C37U is 0.294; for A24G C37A it is 0.345; for A24G C37G it is 0.359. Under A23C G34C stands 1.26; under A23C G34U, 1.14. Under A23C G34A stands 1.1; under A22U U70C, 0.876; under A24C U70A, 0.985.

Regarding A23U G40U, the self-cleavage came out at 0.134. The figure for A23U G40C is 0.1. In the case of A23G G57U, the self-cleavage stood at 0.142. The figure for A24C A35C is 0.778.

A23G C37U: the self-cleavage was found to be 0.466.

Turning to A23U A31G, the self-cleavage worked out at 0.805. The figure for A23U A31C is 0.147; for A23G G40C it is 0.16. In the case of A22U U52C, the self-cleavage turned out to be 0.631. Under A22U U52G stands 0.883; under A23G U53G, 0.706; under A24C A49G, 0.535. The figure for A22U G32A is 0.122; for A22U G51C it is 0.607; for A22U G51U it is 0.761.

Turning to A23G A43G, the self-cleavage amounted to 0.0591.

With A23G A43U, the self-cleavage worked out at 0.184. Under A24C A28U stands 0.592; under A24C A28G, 1.13; under A24C C50G, 0.326.

For A23G C38G, the self-cleavage was found to be 0.186. The figure for A24C G57C is 0.131; for A24C G57U it is 0.14; for A23U A43C it is 0.141. The figure for A23G A59G is 0.184; for A24G G27U it is 0.303. Under A23U G57U stands 0.307; under A23U G57C, 0.211; under A23G A49G, 0.426.

Take A23G A49C: the self-cleavage is 0.159. The figure for A23U C46A is 0.224; for A23U C46G it is 0.0441; for A24U G57A it is 0.196. The figure for A24G A39U is 0.473. The figure for A24G A71G is 1.07; for A24G A71U it is 0.667; for A23U U33C it is 0.144. On to A24C U58A, for which the self-cleavage was 0.265.

Regarding A24C U58G, the self-cleavage amounted to 0.761. In the case of A24G U58A, the self-cleavage was determined as 0.628.

As for A24G U58G, the self-cleavage stood at 0.517.

With A24G U58C, the self-cleavage worked out at 0.804. Under A23U A30U stands 0.0692; under A23G C50U, 0.43; under A24G A59U, 0.153.

For A24G A59C, the self-cleavage was 0.213. The figure for A23C C37G is 0.159; for A22U A28C it is 0.561; for A22U A28U it is 0.67. Under A24C C37A stands 0.352; under A23C U33A, 0.109.
